From patent US20160031986A1

Target: cynomolgus monkey DLL4 extracellular domain (cynomolgus monkey)
Test: binding ELISA

Row | EC50 [nM] | Binder
1 | 0.13 | h1A11.2 (antibody, V domains shown) VH: EVQLVESGGGLVQPGGSLRLSCAASGFTFSNFPMAWVRQAPGKGLEWVATISSSDGTTYYRDSVKGRFTISRDNAKNSLYLQMNSLRAEDTAVYYCARGYYNSPFAYWGQGTLVTVSS VL: DIQMTQSPSSLSASVGDRVTITCRASEDIYSNLAWYQQKPGKSPKLLIFDTNNLADGVPSRFSGSGSGTDSTLTISSLQPEDFATYFCQQYNNYPPTFGQGTKLEIKR
2 | 0.15 | h1A11.11 (antibody, V domains shown) VH: EVQLVESGGGLVQPGGSLRLSCAASGFTFSNFPMAWVRQAPGKGLEWVATISSSDGTTYYRDSVKGRFTISRDNAKNSLYLQMNSLRAEDTAVYYCSRGYYNSPFAYWGQGTLVTVSS VL: DIQMTQSPSSLSASVGDRVTITCRASEDIYSNLAWYQQKPGKAPKLLIFDTNNLADGVPSRFSGSGSGTDFTLTISSLQPEDFATYYCQQYNNYPPTFGQGTKLEIKR
3 | 0.17 | h1A11.4 (antibody, V domains shown) VH: EVQLVESGGGLVQPGGSLRLSCAASGFTFSNFPMAWVRQAPGKGLEWVATISSSDGTTYYRDSVKGRFTISRDNAKNSLYLQMNSLRAEDTAVYYCARGYYNSPFAYWGQGTLVTVSS VL: EIVMTQSPATLSVSPGERATLSCRASEDIYSNLAWYQQKPGQSPRLLIFDTNNLADGVPARFSGSGSGTESTLTISSLQSEDFAVYFCQQYNNYPPTFGQGTKLEIKR
4 | 0.16 | h1A11.13 (antibody, V domains shown) VH: EVQLVESGGGLVQPGGSLRLSCAASGFTFSNFPMAWVRQAPGKGLEWVATISSSDGTTYYRDSVKGRFTISRDNSKSTLYLQMNSLRAEDTAVYYCSRGYYNSPFAYWGQGTLVTVSS VL: DIQMTQSPSSLSASVGDRVTITCRASEDIYSNLAWYQQKPGKAPKLLIYDTNNLADGVPSRFSGSGSGTDFTLTISSLQPEDFATYYCQQYNNYPPTFGQGTKLEIKR
5 | 0.15 | h1A11.10 (antibody, V domains shown) VH: EVQLVESGGGLVQPGGSLRLSCAASGFTFSNFPMAWVRQAPGKGLEWVATISSSDGTTYYRDSVKGRFTISRDNAKNSLYLQMNSLRAEDTAVYYCSRGYYNSPFAYWGQGTLVTVSS VL: DIQMTQSPSSLSASVGDRVTITCRASEDIYSNLAWYQQKPGKSPKLLIFDTNNLADGVPSRFSGSGSGTDSTLTISSLQPEDFATYFCQQYNNYPPTFGQGTKLEIKR
6 | 0.13 | h1A11.15 (antibody, V domains shown) VH: EVQLVESGGGLVQPGGSLRLSCAASGFTFSNFPMAWVRQAPGKGLEWVATISSSDGTTYYRDSVKGRFTISRDNSKSTLYLQMNSLRAEDTAVYYCSRGYYNSPFAYWGQGTLVTVSS VL: DIQMTQSPSSLSASVGDRVTITCRASEDIYSNLAWYQQKPGKAPKLLIFDTNNLADGVPSRFSGSGSGTDFTLTISSLQPEDFATYYCQQYNNYPPTFGQGTKLEIKR
7 | 0.14 | h1A11.7 (antibody, V domains shown) VH: EVQLVESGGGLVQPGGSLRLSCAASGFTFSNFPMAWVRQAPGKGLEWVATISSSDGTTYYRDSVKGRFTISRDNAKSSLYLQMNSLRAEDTAVYYCSRGYYNSPFAYWGQGTLVTVSS VL: DIQMTQSPSSLSASVGDRVTITCRASEDIYSNLAWYQQKPGKAPKLLIFDTNNLADGVPSRFSGSGSGTDFTLTISSLQPEDFATYYCQQYNNYPPTFGQGTKLEIKR
8 | 0.15 | h1A11.9 (antibody, V domains shown) VH: EVQLVESGGGLVQPGGSLRLSCAASGFTFSNFPMAWVRQAPGKGLEWVATISSSDGTTYYRDSVKGRFTISRDNAKNSLYLQMNSLRAEDTAVYYCSRGYYNSPFAYWGQGTLVTVSS VL: DIQMTQSPSSLSASVGDRVTITCRASEDIYSNLAWYQQKPGKAPKLLIYDTNNLADGVPSRFSGSGSGTDFTLTISSLQPEDFATYYCQQYNNYPPTFGQGTKLEIKR
9 | 0.16 | h1A11.5 (antibody, V domains shown) VH: EVQLVESGGGLVQPGGSLRLSCAASGFTFSNFPMAWVRQAPGKGLEWVATISSSDGTTYYRDSVKGRFTISRDNAKSSLYLQMNSLRAEDTAVYYCSRGYYNSPFAYWGQGTLVTVSS VL: DIQMTQSPSSLSASVGDRVTITCRASEDIYSNLAWYQQKPGKAPKLLIYDTNNLADGVPSRFSGSGSGTDFTLTISSLQPEDFATYYCQQYNNYPPTFGQGTKLEIKR
10 | 0.17 | h1A11.8 (antibody, V domains shown) VH: EVQLVESGGGLVQPGGSLRLSCAASGFTFSNFPMAWVRQAPGKGLEWVATISSSDGTTYYRDSVKGRFTISRDNAKSSLYLQMNSLRAEDTAVYYCSRGYYNSPFAYWGQGTLVTVSS VL: EIVMTQSPATLSVSPGERATLSCRASEDIYSNLAWYQQKPGQSPRLLIFDTNNLADGVPARFSGSGSGTESTLTISSLQSEDFAVYFCQQYNNYPPTFGQGTKLEIKR
11 | 0.16 | h1A11.3 (antibody, V domains shown) VH: EVQLVESGGGLVQPGGSLRLSCAASGFTFSNFPMAWVRQAPGKGLEWVATISSSDGTTYYRDSVKGRFTISRDNAKNSLYLQMNSLRAEDTAVYYCARGYYNSPFAYWGQGTLVTVSS VL: DIQMTQSPSSLSASVGDRVTITCRASEDIYSNLAWYQQKPGKAPKLLIFDTNNLADGVPSRFSGSGSGTDFTLTISSLQPEDFATYYCQQYNNYPPTFGQGTKLEIKR
12 | 0.13 | h1A11.6 (antibody, V domains shown) VH: EVQLVESGGGLVQPGGSLRLSCAASGFTFSNFPMAWVRQAPGKGLEWVATISSSDGTTYYRDSVKGRFTISRDNAKSSLYLQMNSLRAEDTAVYYCSRGYYNSPFAYWGQGTLVTVSS VL: DIQMTQSPSSLSASVGDRVTITCRASEDIYSNLAWYQQKPGKSPKLLIFDTNNLADGVPSRFSGSGSGTDSTLTISSLQPEDFATYFCQQYNNYPPTFGQGTKLEIKR
13 | 0.16 | h1A11.12 (antibody, V domains shown) VH: EVQLVESGGGLVQPGGSLRLSCAASGFTFSNFPMAWVRQAPGKGLEWVATISSSDGTTYYRDSVKGRFTISRDNAKNSLYLQMNSLRAEDTAVYYCSRGYYNSPFAYWGQGTLVTVSS VL: EIVMTQSPATLSVSPGERATLSCRASEDIYSNLAWYQQKPGQSPRLLIFDTNNLADGVPARFSGSGSGTESTLTISSLQSEDFAVYFCQQYNNYPPTFGQGTKLEIKR
14 | 0.14 | h1A11.14 (antibody, V domains shown) VH: EVQLVESGGGLVQPGGSLRLSCAASGFTFSNFPMAWVRQAPGKGLEWVATISSSDGTTYYRDSVKGRFTISRDNSKSTLYLQMNSLRAEDTAVYYCSRGYYNSPFAYWGQGTLVTVSS VL: DIQMTQSPSSLSASVGDRVTITCRASEDIYSNLAWYQQKPGKSPKLLIFDTNNLADGVPSRFSGSGSGTDSTLTISSLQPEDFATYFCQQYNNYPPTFGQGTKLEIKR

Target: cynomolgus monkey DLL4 extracellular domain (cynomolgus monkey)
Test: Biacore SPR

Row | Kd [nM] | koff [s⁻¹] | kon [M⁻¹ s⁻¹] | Binder
15 | 0.4 | 9.8e-05 | 260000 | 38H12 rat monoclonal antibody (antibody, V domains shown) VH: EVQLVESGGGLVQPGRSLKLSCAASGFTFSNYGMYWIRQAPTKGLQWVAFISHGGGITYYRDSVKGRFTISRDNAKSTLYLQMDSLRSEDTATYHCAALNWELGIDYWGQGVMVTVSS VL: DIQMTQSPASLSASLGETISIECRASEDIYSNLAWYQKKSGKSPQLLIYAANRLQDGVPSRFSGSGSGTQYSLKISGMQPEDEGDYFCLQGSKFPLTFGSGTKLEIKR
16 | 10.5 | 0.00041 | 39000 | 14G1 rat monoclonal antibody (antibody, V domains shown) VH: EVQLQQSGAELAKPGSSVKISCKASGYTFTNYDISWIKQTNGQGLEYLGYINTGSGGIYSNEKFKGKATLTVDKSSNTAFMQLSSLTPEDTAVYYCVREGNNFDHWGQGVKVTVSS VL: DTVMTQSPASMSTSVGERVTVNCKASQSVGTIVAWFQQKPGQSPKRLIYLATYRHTGVPDRFIGSGFGRDFTLTISNVEAEDLAVYYCLQYGSRPFTFGAGTKLEIKR
17 | < 617 | – | 40000 | 37D10 rat monoclonal antibody (antibody, V domains shown) VH: AVQLVESGGGLVQPKESLKISCAASGFTFSNAAMYWVRLAPGKGLEWVARIRTKPNNYATYYAESVKGRFTISRDDSKSMVYVQMDNLKTEDTAMYYCTAAPWRDSYAHVYWGQGVMVTVSS VL: DIQMTQSPPVLSASVGDRVTLSCKASQNIHKNLDWYQQKHGDAPKLLIYYTDHLQTGVPSRFSGSGSATDYTLTISSLQPEDVATYYCYQYNGGPFTFGSGTKLEIKR
18 | 8.1 | 0.00093 | 110000 | 1A11 rat monoclonal antibody (antibody, V domains shown) VH: EVQLVESGGGLVQPGRSMKLSCAASGFTFRNFPMAWVRQAPTRGLEWVATISSSDGTTYYRDSVKGRFTISRDNAKSTLYLQVNSLRSEDTATYYCSRGYYNSPFAYWGQGTLVTVSS VL: DIQMTQSPASLSASLGETVTIECRASEDIYSNLAWYQQKPGNSPQLLIFDTNNLADGVPSRFSGSGSGTQSSLKINSLQSEDVASYFCQQYNNYPPTFGGGTKLELKR
19 | 14.9 | 0.00083 | 56000 | 15D6 rat monoclonal antibody (antibody, V domains shown) VH: EVQLQQSGPELAKPGSSVKISCKASGYTFTSSYISWIKQTTGQGLEYIGYINTGSGGTDYNEKFKDKATLTVDKSSRTVFMQLSSLTPGDSAVYYCAKSILLGSTYYLDYWGQGVMVTVSS VL: DTVLTQSPALAVSLGQRVTISCKASRSLSSPMYSYIYWYQQKLGQQPRLLIYRASTLASGVPARFSGSGSGTDFTLNIDPVEADDIATYFCQQSWSDPFTFGSGTKLEIKR
20 | 11.6 | 0.0012 | 110000 | 14A11 rat monoclonal antibody (antibody, V domains shown) VH: EVQLQQSGPELAKPGSSVKISCKASGYTFTNSYISWIKQTTGQGLEYVGYINTGSGGADYNEKFKGKATLTVDKSSRTAFMQLSSLTPGDSAVYYCAKSILLGSTCYFDYWGQGVLVTVSS VL: NTVLTQSPALAVSLGQRVTISCKASRSVSSPMYSYIYWYQQKPGQQPKLLIYRASTLASGVPARFSGSGSGTDFTLNIDPVEADDIATYFCQQSWSDPFTFGSGTKLEIKR
21 | 0.03 | 6.3e-06 | 220000 | 32C7 rat monoclonal antibody (antibody, V domains shown) VH: EVQLVESGGGLVQPGRSLKLSCLASGFPFSSVWMTWIRQAPGKGLEWIATITNSGASTYYSASVKGRFTISRDNVKSTLYLQMTSLGSEDTATYYCTRVGTSFDYWGQGVMVTVSS VL: DIQMTQSPASLSASLGETVTIECRASDDIYNGLAWFQQKPGKSPQLLIYDANTLHTGVPSRFSGSGSGTQFSLKINSLQSEDVASYFCQQFYDYPPYTFGAGTKLELKR
